According to the nanobody polyreactivity screen of Harvey et al. (2022):

Assay: yeast display, Sf9 membrane polyspecificity reagent, FACS + sequencing; frameworks hold sequencing errors
Outline: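 Synthetic nanobody libraries on Saccharomyces cerevisiae BJ5465 were galactose-induced for 36–48 hours, stained 1 hour at 4 °C with 10% biotinylated, detergent-solubilized Sf9 membrane reagent and enriched on streptavidin microbeads. FACS then separated cells into low and high (top ~1%) gates by anti-HA (expression) and streptavidin (reagent binding) fluorescence. Genes were colony-PCR amplified, MiSeq 2 × 250 sequenced and CDR-length filtered. A clone's polyreactivity label is that of its gate of origin.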

Sequence | polyreactivity (PSR sort gate)
QVQLVESGGGLVQAGGSLRLSCAASGYTFTLYAMGWYRQAPGKEREFVAAISIGGDSTYYADSVKGRFTISRDNAKNTVYLQMNSLKPEDTAVYYCAADTYQRWILLIGELQVETSYDYWGQGTQVTVSS | low polyreactivity
QVQLVESGGGLVQAGGSLRLSCAASGYTFVIYAMGWYRQAPGKERELVAAITTIGGRTYYADSVKGRFTISRDNAKNTVYLQMNSLKPEDTAVYYCAADIRSYRLYDGGYWGQGTQVTVSS | low polyreactivity
QVQLVESGGGLVQAGGSLRLSCAASGYTFVVYAMGWYRQAPGKERELVAGITRGSSTYYADSVKGRFTISRDNAKNTVYLQMNSLKPEDTAVYYCARGYTWFYAVWPEYDYWGQGTQVTVSS | high polyreactivity
QVQLVESGGGLVQAGGSLRLSCAASGYTFVYYAMGWYRQAPGKERELVAAITSGGRTNYADSVKGRFTISRDNAKNTVYLQMNSLKPEDTAVYYCARLDYRSVRYGLRGQGTQVTVSS | low polyreactivity
QVQLVESGGGLVQAGGSLRLSCAASGYTFWDNAMGWYRQAPGKERELVAAITIRSGRTYYADSVKGRFTISRDNAKNTVYLQMNSLKPEDTAVYYCNAQIYTYRTGRGYSRMDYWGKGTQVTVSS | high polyreactivity
QVQLVESGGGLVQAGGSLRLSCAASGYTFWDYALGCYRQAPGKERAFVAGISFSDGGTYYADSVKGRFTISRDNAKNTVYLQMNSLKPEDTAVYYCAATYPYSWVYSGYYYWGQGTQVTVSS | low polyreactivity
QVQLVESGGGLVQAGGSLRLSCAASGYTFWLYAMGWYRQAPGKERELVATISRRAGTTYYADSVKGRFTISRDNAKNTVYLQMNSLKPEDTAVYYCNTDGYPRLYIYDYWGQGTQVTVSS | low polyreactivity
QVQLVESGGGLVQAGGSLRLSCAASGYTFWWYAMGWYRQAPGKEREFVAAIRFSGGTGTYYADSVKGRFTISRDNAKNTVYLQMNSLKPEDTAVYYCAADIAFRQWQVGDFDYWGQGTQVTVSS | low polyreactivity
QVQLVESGGGLVQAGGSLRLSCAASGYTFWWYAMGWYRQAPGKEREFVAAIRFSGGTRTYYADSVKGRFTISRENAKYTVFLQMNSLKPDDTAVYYCAADIAFRQWQVGDFDYWGQGTQVTVSS | low polyreactivity
QVQLVESGGGLVQAGGSLRLSCAASGYTFWYYTMGWYRQATGKERELVATISSNGRRTYYADSVKGRFTISRDNAKNTVYLQMNSLYPEDTAVYYCAAVLYRSWVYTTHDYWGHGTQVTVSS | high polyreactivity
QVQLVESGGGLVQAGGSLRLSCAASGYTFYANAMGWYRQAPGKEREFVASITWSGGSTYYADSVKGRFTISRDNAKNTVYLQMNSLKTEDTAVYYCAAESWFKYDYWGQGTQVTVSS | low polyreactivity
QVQLVESGGGLVQAGGSLRLSCAASGYTFYAYAMGWYRQAPGKERELVAAISGSGGNTRYADSVKGRFTISRDNAKNTVYLQMNSLKPEDTAVYYCAAVGWAYNSRYDYWGQGTQVTVSS | high polyreactivity
QVQLVESGGGLVQAGGSLRLSCAASGYTFYGYAMGWYRQAPGKERELVAAISWSGTNTNYADSVKGRFTISRDNAKNTVYLQMNSLKPEDTAVYYCAAGYYYRGFHTEDYWGQGTQVTVSS | high polyreactivity
QVQLVESGGGLVQAGGSLRLSCAASGYTFYPYAMGWYRQAPGKERELVAAITTSGGSTYYADSVKGRFTISRDNAKNTVYLQMNSLKPEDTAVYYCARDSLQVFYPYASDDYWGQGTQVTVSS | low polyreactivity
QVQLVESGGGLVQAGGSLRLSCAASGYTFYRYAMGWYRQAPGKERELVAGIDRSGTRTYYADSVKGRFTISRDNAKNTVYLQMNSLKPEDTAVYYCNAVAYYVSKYDYWGQGTQVTVSS | high polyreactivity
QVQLVESGGGLVQAGGSLRLSCAASGYTFYRYAMGWYRQAPGKERELVAGISRDGGSTYYADSVKGRFTISRDNAKNTVYLQMNSLKPEDTAVYYCAADKTRYRLGRDYWGQGTQVTVSS | low polyreactivity
QVQLVESGGGLVQAGGSLRLSCAASGYTFYRYTMGWYRQAPGKEREVVAAINSGGSTNYADSLKGRFTISRDNAKNTVYLQMNSLKPEDTAVYYCARRYQTWPRWYDYWGQGTQVTVSS | high polyreactivity
